Assay results reported in US20230094162A1 (MacroGenics, published 2023).
Where a chain is given by its changes, count along the chain named. Like-named read-outs stand apart in the source and are kept apart here. One block for each binder: values may come before it.

Key:
[1] = target: T1, CD137 expressed on the cell surface (CHO/CD137 cells) (UniProt Q07011 24-255, limits assumed); assay: flow cytometry (FACS) on CHO cells expressing CD137, MFI
T1 construct: whole, on cells; also called cell surface CD137; Jurkat-NF-κB-Luc reporter cells overexpressing CD137
T1 sequence (Q07011 24-255 limits assumed): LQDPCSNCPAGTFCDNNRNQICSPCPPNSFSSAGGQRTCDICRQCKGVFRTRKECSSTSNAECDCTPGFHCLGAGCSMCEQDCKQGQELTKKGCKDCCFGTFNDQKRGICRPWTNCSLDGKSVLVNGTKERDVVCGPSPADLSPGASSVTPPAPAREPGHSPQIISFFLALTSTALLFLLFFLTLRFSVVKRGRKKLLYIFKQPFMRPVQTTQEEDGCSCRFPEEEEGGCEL
Experimental: FACS analysis to evaluate the test articles for binding to cell surface CD137 was performed essentially as follows: 100 μL of CHO cells expressing CD137 (CHO/CD137) (1.0×10⁵ to 1×10⁶ cells/well) and 100 μL of serially diluted test article or control was added to each well of microtiter assay plate(s), mixed and incubated at RT for about 30 min. The cells were washed with FACS Buffer and secondary antibody (goat anti-human-APC, PE, or FITC) was then added to each well (1:1000), after which, the components were mixed and the wells were incubated at RT for about 30 min. Cells were washed and resuspended in 250 μL FACS Buffer and analyzed by flow cytometry (BD LSR Fortessa or FACSCanto II) for cell events collection. Data analysis were performed via FloJo v10.

[2] = target: T2, PD-L1 expressed on the cell surface (CHO/PD-L1 cells) (UniProt Q9NZQ7 19-290); assay: flow cytometry (FACS) on CHO cells expressing PD-L1, MFI
T2 construct: whole, on cells; also called PD-L1 on JIMT-1 cells
T2 sequence (Q9NZQ7 19-290): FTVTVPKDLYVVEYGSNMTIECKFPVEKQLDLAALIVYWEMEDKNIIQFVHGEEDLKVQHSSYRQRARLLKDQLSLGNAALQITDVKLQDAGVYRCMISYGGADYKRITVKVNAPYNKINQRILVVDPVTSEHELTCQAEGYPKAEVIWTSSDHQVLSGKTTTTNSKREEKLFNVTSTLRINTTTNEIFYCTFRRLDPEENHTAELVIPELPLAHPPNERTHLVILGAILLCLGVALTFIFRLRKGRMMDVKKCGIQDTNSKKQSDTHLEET
Experimental: FACS analysis to evaluate the test articles for binding to cell surface PD-L1 was performed essentially as follows: 100 μL of CHO cells expressing PD-L1 (CHO/PD-L1) (1.0×10⁵ to 1.0×10⁶ cells/well) and 100 μL of serially diluted test article was added to each well of microtiter assay plate(s), mixed and incubated at RT for about 30 min. The cells were washed with FACS Buffer and secondary antibody (goat anti-human-FITC, PE, or APC) was then added to each well, after which, the components were mixed and the wells were incubated at RT for about 30 min. Cells were washed and resuspended in 250 μL FACS Buffer and analyzed by flow cytometry (BD LSR Fortessa or FACSCanto II) for cell events collection. Data analysis were performed via FloJo v10.
Test articles were used at 10 μg/mL and five-fold serial dilutions for the FACS analysis and at 50 μg/mL and five-fold serial dilutions for the PD-L1 reporter assay.

[3] = target: T2, PD-L1 expressed on the cell surface …; assay: cell-based or functional assay
[4] = target: T2, PD-L1 expressed on the cell surface …; assay: flow cytometry (FACS) on JIMT-1 cells (PD-L1 positive), MFI
[5] = target: T1, CD137 expressed on the cell surface …; assay: flow cytometry (FACS) on CHO cells expressing CD137, MFI; remark: listed apart in the source

EC50 (read off the curve) [1]: ~0.02 µg/mL
EC50 (read off the curve) [2]: ~0.08 µg/mL
B1: TRIDENT-A (bispecific antibody, human IgG1, kappa, L234A L235A)
chain 1: EIVMTQSPATLSLTPGERATLSCRASQSVSSNYLSWFQQIPGQAPRLLIYGASTRATGIPARFSGSGSGTDFTLTISSLQPEDFAVYYCQQDYDLPWTFGQGTKVEIKGGGSGGGGQVQLQESGPGLVKPSETLSLTCTVSGGSISSYYWSWIRQPPGKGLEWIGRIYTSGSTNYNPSLKSRVTMSVDTSKNQFSLKLSSVTAADTAVYYCARDGWYDEDYNYYGMDVWGQGTTVTVSSGGCGGGEVAALEKEVAALEKEVAALEKEVAALEKGGGDKTHTCPPCPAPEAAGGPSVFLFPPKPKDTLYITREPEVTCVVVDVSHEDPEVKFNWYVDGVEVHNAKTKPREEQYNSTYRVVSVLTVLHQDWLNGKEYKCKVSNKALPAPIEKTISKAKGQPREPQVYTLPPSREEMTKNQVSLWCLVKGFYPSDIAVEWESNGQPENNYKTTPPVLDSDGSFFLYSKLTVDKSRWQQGNVFSCSVMHEALHNHYTQKSLSLSPGK
chain 2: EIVMTQSPATLSLTPGERATLSCRASQSVSSNYLSWFQQIPGQAPRLLIYGASTRATGIPARFSGSGSGTDFTLTISSLQPEDFAVYYCQQDYDLPWTFGQGTKVEIKGGGSGGGGQVQLQESGPGLVKPSETLSLTCTVSGGSISSYYWSWIRQPPGKGLEWIGRIYTSGSTNYNPSLKSRVTMSVDTSKNQFSLKLSSVTAADTAVYYCARDGWYDEDYNYYGMDVWGQGTTVTVSSGGCGGGKVAALKEKVAALKEKVAALKEKVAALKE
heavy: EVQLVESGGGLVQPGGSLRLSCAASGFTFSSYTMSWVRQAPGKGLEWVAYISIGGGTTYYPDTVKGRFTISRDNAKNTLYLQMNSLKTEDTAVYYCARQGLPYYFDYWGQGTLVTVSSASTKGPSVFPLAPSSKSTSGGTAALGCLVKDYFPEPVTVSWNSGALTSGVHTFPAVLQSSGLYSLSSVVTVPSSSLGTQTYICNVNHKPSNTKVDKRVEPKSCDKTHTCPPCPAPEAAGGPSVFLFPPKPKDTLYITREPEVTCVVVDVSHEDPEVKFNWYVDGVEVHNAKTKPREEQYNSTYRVVSVLTVLHQDWLNGKEYKCKVSNKALPAPIEKTISKAKGQPREPQVYTLPPSREEMTKNQVSLSCAVKGFYPSDIAVEWESNGQPENNYKTTPPVLDSDGSFFLVSKLTVDKSRWQQGNVFSCSVMHEALHNRYTQKSLSLSPGK
light: DIQMTQSPSSLSASVGDRVTITCKASQDVNTAVAWYQQKPGKAPKLLIYWASTRHTGVPSRFSGSGSGTDFTLTISSLQPEDFATYYCQQHYNTPLTFGQGTKVEIKRTVAAPSVFIFPPSDEQLKSGTASVVCLLNNFYPREAKVQWKVDNALQSGNSQESVTEQDSKDSTYSLSSTLTLSKADYEKHKVYACEVTHQGLSSPVTKSFNRGEC
notes: Trivalent: two CD137 MAB-6(1.1) sites, one hPD-L1 MAB-2(1.1) Fab-type site

EC50 (read off the curve) [3]: ~0.1 µg/mL
EC50 (read off the curve) [4]: ~7 ng/mL
B2: DART-A1 (bispecific antibody)
first and third polypeptide chains: DIQMTQSPSSLSASVGDRVTITCKASQDVNTAVAWYQQKPGKAPKLLIYWASTRHTGVPSRFSGSGSGTDFTLTISSLQPEDFATYYCQQHYNTPLTFGQGTKVEIKGGGSGGGGQVQLQESGPGLVKPSETLSLTCTVSGGSISSYYWSWIRQPPGKGLEWIGRIYTSGSTNYNPSLKSRVTMSVDTSKNQFSLKLSSVTAADTAVYYCARDGWYDEDYNYYGMDVWGQGTTVTVSSGGCGGGEVAACEKEVAALEKEVAALEKEVAALEKLEPKSADKTHTCPPCPAPEAAGGPSVFLFPPKPKDTLYITREPEVTCVVVDVSHEDPEVKFNWYVDGVEVHNAKTKPREEQYNSTYRVVSVLTVLHQDWLNGKEYKCKVSNKALPAPIEKTISKAKGQPREPQVYTLPPSREEMTKNQVSLTCLVKGFYPSDIAVEWESNGQPENNYKTTPPVLDSDGSFFLYSKLTVDKSRWQQGNVFSCSVMHEALHNHYTQKSLSLSPGK
second and fourth polypeptide chains: EIVMTQSPATLSLTPGERATLSCRASQSVSSNYLSWFQQIPGQAPRLLIYGASTRATGIPARFSGSGSGTDFTLTISSLQPEDFAVYYCQQDYDLPWTFGQGTKVEIKGGGSGGGGEVQLVESGGGLVQPGGSLRLSCAASGFTFSSYTMSWVRQAPGKGLEWVAYISIGGGTTYYPDTVKGRFTISRDNAKNSLYLQMNSLRAEDTAVYYCARQGLPYYFDYWGQGTLVTVSSGGCGGGKVAACKEKVAALKEKVAALKEKVAALKE

EC50 (read off the curve) [5]: ~0.02 µg/mL
B3: DART-A5 (bispecific antibody)
chain 1: B2 first and third polypeptide chains with T31E
chain 2: B2 second and fourth polypeptide chains with T14S, F37Y, I40K, G170K, F221G
notes: Tetravalent; CD137 MAB-6(1.2) and hPD-L1 MAB-2(3.2)
